Measured values: patent US20250277199, “NOVEL CRISPR-CAS NUCLEASES FROM METAGENOMES” (Brain Biotech AG, published 2025)

Biological target: T1, BMC14 (uncultured bacterium (metagenome))
T1 chain: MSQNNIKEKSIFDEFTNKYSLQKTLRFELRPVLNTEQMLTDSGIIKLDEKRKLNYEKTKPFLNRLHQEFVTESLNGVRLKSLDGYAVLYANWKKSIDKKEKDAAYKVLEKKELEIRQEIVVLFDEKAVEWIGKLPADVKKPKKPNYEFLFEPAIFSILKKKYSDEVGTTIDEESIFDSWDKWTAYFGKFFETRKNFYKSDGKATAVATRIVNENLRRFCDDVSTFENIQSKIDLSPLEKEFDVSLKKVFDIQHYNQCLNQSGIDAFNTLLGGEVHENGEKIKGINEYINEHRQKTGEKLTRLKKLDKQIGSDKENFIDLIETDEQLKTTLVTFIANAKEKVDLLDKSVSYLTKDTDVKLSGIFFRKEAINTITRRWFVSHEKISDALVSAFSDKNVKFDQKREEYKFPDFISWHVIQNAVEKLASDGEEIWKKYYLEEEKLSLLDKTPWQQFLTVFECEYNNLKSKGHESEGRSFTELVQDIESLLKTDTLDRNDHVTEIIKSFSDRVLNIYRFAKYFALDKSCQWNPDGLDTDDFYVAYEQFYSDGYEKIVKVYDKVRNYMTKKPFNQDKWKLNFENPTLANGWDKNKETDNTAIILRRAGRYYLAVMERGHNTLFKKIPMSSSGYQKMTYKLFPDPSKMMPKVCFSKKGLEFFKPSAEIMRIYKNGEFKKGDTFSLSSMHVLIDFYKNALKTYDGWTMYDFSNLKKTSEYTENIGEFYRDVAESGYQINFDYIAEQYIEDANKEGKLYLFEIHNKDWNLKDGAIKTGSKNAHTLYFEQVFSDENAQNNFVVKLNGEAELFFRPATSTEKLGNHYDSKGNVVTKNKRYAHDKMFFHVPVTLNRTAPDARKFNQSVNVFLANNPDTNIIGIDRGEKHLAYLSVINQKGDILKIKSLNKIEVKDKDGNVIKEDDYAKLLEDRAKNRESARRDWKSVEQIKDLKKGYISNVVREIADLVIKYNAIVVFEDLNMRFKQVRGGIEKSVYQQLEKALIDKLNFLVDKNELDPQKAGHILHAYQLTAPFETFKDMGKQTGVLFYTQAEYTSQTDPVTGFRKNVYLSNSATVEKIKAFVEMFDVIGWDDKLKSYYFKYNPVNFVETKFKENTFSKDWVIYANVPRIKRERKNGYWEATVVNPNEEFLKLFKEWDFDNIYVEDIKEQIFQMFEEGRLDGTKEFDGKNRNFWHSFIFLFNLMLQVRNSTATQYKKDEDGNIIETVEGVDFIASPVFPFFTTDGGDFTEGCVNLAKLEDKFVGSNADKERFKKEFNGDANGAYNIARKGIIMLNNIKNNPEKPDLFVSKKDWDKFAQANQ
Assay: cell_activity; PAM not stated; E. coli depletion, 30 C
Outline: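 E. coli carrying arabinose-induced (0.2%) BMC nuclease, grown at 30° C., made electrocompetent and electroporated with 50-100 ng plasmid carrying gRNA against malQ. Transformants plated on selective M9-glucose agar with kanamycin/ampicillin (± nourseothricin), and growth scored after 48 h at 30° C.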

B1: malQ gRNA (BMC stem-loop + 24 nt spacer) ; malQ protospacer (ssRNA ; dsDNA)
RNA: GAUUUCUACUAUUGUAGAUGUGGCGGUACGUUGAUGCAUCGCG
DNA 1: GTGGCGGTACGTTGATGCATCGCG
DNA 2: CGCGATGCATCAACGTACCGCCAC
activity: > 99.9 % colony reduction
